Source: PMC10516966

Biological target: T1, Rat TRPV2 (transient receptor potential vanilloid 2 channel), full length, C-terminal 1D4 tag (rat), Q9WUD2
T1 chain: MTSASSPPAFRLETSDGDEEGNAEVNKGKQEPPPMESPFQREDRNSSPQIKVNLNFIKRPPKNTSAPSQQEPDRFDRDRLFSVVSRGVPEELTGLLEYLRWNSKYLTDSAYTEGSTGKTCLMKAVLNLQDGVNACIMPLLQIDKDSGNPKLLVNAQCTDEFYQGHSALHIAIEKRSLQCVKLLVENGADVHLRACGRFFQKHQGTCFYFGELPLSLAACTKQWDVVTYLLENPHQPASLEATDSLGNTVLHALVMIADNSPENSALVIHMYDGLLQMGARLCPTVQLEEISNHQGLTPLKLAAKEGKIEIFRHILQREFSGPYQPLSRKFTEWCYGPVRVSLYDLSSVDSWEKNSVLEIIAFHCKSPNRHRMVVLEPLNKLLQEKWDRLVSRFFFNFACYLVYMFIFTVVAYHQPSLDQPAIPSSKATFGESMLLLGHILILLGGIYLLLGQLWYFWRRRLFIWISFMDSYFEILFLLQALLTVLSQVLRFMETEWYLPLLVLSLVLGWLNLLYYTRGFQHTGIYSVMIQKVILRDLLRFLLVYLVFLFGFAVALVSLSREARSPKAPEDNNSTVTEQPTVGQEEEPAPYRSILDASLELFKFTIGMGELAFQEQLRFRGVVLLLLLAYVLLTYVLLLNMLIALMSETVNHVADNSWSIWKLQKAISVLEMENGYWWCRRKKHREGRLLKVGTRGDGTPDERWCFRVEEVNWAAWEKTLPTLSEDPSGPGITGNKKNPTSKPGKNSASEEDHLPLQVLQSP
Assay: high-speed atomic force microscopy (HS-AFM); TRPV2 reconstituted into soy polar lipid membranes (LPR 0.5-0.7) on mica; imaging buffer 20 mM Hepes pH 8.0, 150 mM NaCl; contacts between neighbouring tetramers scored as connected or not in binarised frames; dwell times fitted with a single exponential; thick continuous connections excluded
Details: remark: other sources report otherwise

B1: Rat TRPV2 (transient receptor potential vanilloid 2 channel), full length, C-terminal 1D4 tag, Q9WUD2 1-761 (natural protein)
chain: MTSASSPPAFRLETSDGDEEGNAEVNKGKQEPPPMESPFQREDRNSSPQIKVNLNFIKRPPKNTSAPSQQEPDRFDRDRLFSVVSRGVPEELTGLLEYLRWNSKYLTDSAYTEGSTGKTCLMKAVLNLQDGVNACIMPLLQIDKDSGNPKLLVNAQCTDEFYQGHSALHIAIEKRSLQCVKLLVENGADVHLRACGRFFQKHQGTCFYFGELPLSLAACTKQWDVVTYLLENPHQPASLEATDSLGNTVLHALVMIADNSPENSALVIHMYDGLLQMGARLCPTVQLEEISNHQGLTPLKLAAKEGKIEIFRHILQREFSGPYQPLSRKFTEWCYGPVRVSLYDLSSVDSWEKNSVLEIIAFHCKSPNRHRMVVLEPLNKLLQEKWDRLVSRFFFNFACYLVYMFIFTVVAYHQPSLDQPAIPSSKATFGESMLLLGHILILLGGIYLLLGQLWYFWRRRLFIWISFMDSYFEILFLLQALLTVLSQVLRFMETEWYLPLLVLSLVLGWLNLLYYTRGFQHTGIYSVMIQKVILRDLLRFLLVYLVFLFGFAVALVSLSREARSPKAPEDNNSTVTEQPTVGQEEEPAPYRSILDASLELFKFTIGMGELAFQEQLRFRGVVLLLLLAYVLLTYVLLLNMLIALMSETVNHVADNSWSIWKLQKAISVLEMENGYWWCRRKKHREGRLLKVGTRGDGTPDERWCFRVEEVNWAAWEKTLPTLSEDPSGPGITGNKKNPTSKPGKNSASEEDHLPLQVLQSP
connection lifetime time constant: 2.2 s
